# Assay results from patent US20050181450A1, “Novel inositol 1,4,5-trisphosphate (IP3) receptor-binding protein and an IP3 indicator” (priority 2002, published 2005).
# Tests used:
# GST-EL (IP3R) = target: T1, GST-EL (IP3R) (Mus musculus, UniProt P11881, N1264K); test: [3H]IP3 binding to GST-EL; conditions: IRBIT treated with alkaline phosphatase
# T1 construct: construct a GST-IP3R1 (1-2217) vector (termed GST-EL); made in house; host or cells: GST-EL: Sf9 cells; His-IRBIT: Sf9 cells or E. coli
# Procedure: (A) 0.2 μg of GST-EL was incubated with 0.1, 1, or 10 μg of purified His-tagged IRBIT expressed in Sf9 cells or E. coli in a solution containing 50 mM Tris-HCl (pH 8.0), 1 mM EDTA, and 1 mM 2-mercaptoethanol, for 30 min on ice. Then 8.7 nM [^3H]IP3 (PerkinElmer Life Sciences) was added to the samples and incubated for 10 min on ice (total volume was 50 μl). The samples were mixed with 2 μl of 50 mg/ml γ-globulin and 50 μl of 30% PEG6000, 50 mM Tris-HCl (pH 8.0), and incubated for 5 min on ice. Non-specific binding was measured in the presence of 10 μM cold IP3. After centrifugation at 20,000×g for 5 min, the precipitate was dissolved in SOLVABLE™ (Packard) and the radioactivity was measured with a liquid scintillation counter (Beckman Coulter). Results are shown as the mean±S.D. from three independent experiments. (B) Purified His-IRBIT expressed in Sf9 cells was incubated with alkaline phosphatase for 30 min at 37° C. prior to the IP3 binding assay described as in (A). (C and D) Scatchard analysis. 0.1 μg of GST-EL was incubated with or without 1 μg of purified His-tagged IRBIT expressed in Sf9 cells as described in (A). Then 2.17 nM [^3H]IP3 and 2-500 nM cold IP3 were added to the samples and incubated for 10 min on ice (total volume was 100 μl). Non-specific binding was measured in the presence of 10 μM cold IP3. [^3H]IP3 binding to GST-EL was measured as described in (A).
# The effect of IRBIT on binding of IP3 to IP3R was examined. GST-EL (0.2 μg) was incubated with 0.1, 1, or 10 μg of purified His-tagged IRBIT expressed in Sf9 cells or E. coli in a solution containing 50 mM Tris-HCl (pH 8.0), 1 mM EDTA, and 1 mM 2-mercaptoethanol, for 30 min on ice. Then 8.7 nM [^3H]IP3 (PerkinElmer Life Sciences) was added to the samples and incubated for 10 min on ice (total volume was 50 μl). The samples were mixed with 2 μl of 50 mg/ml γ-globulin and 50 μl of 30% PEG6000, 50 mM Tris-HCl (pH 8.0), and incubated for 5 min on ice. Non-specific binding was measured in the presence of 10 μM cold IP3. After centrifugation at 20,000×g for 5 min, the precipitate was dissolved in SOLVABLE™ (Packard) and the radioactivity was measured with a liquid scintillation counter (Beckman Coulter). […] 0.1 μg of GST-EL was incubated with or without 1 μg of purified His-tagged IRBIT expressed in Sf9 cells as described in (A). Then 2.17 nM [^3H]IP3 and 2-500 nM cold IP3 were added to the samples and incubated for 10 min on ice (total volume was 100 μl). Non-specific binding was measured in the presence of 10 μM cold IP3. [^3H]IP3 binding to GST-EL was measured as described in (A). […] Bmax was not changed.
# [1] = target: T2, GST-IbIIa (IP3-binding region of mouse IP3R1) (Mus musculus, UniProt P11881); test: GST pulldown with GST-IbIIa; conditions: IRBIT in high salt extract
# T2 construct: GST-IbIIa (amino acids 224-604 of mouse IP3R1) and its site-directed mutants K508A and R441Q; made in house
# Text: The cDNAs encoding the full-length and N-terminal region (amino acids 1-104) of IRBIT were subcloned into the Escherichia coli hexahistidine (His) fusion vector pET-23a(+) (Novagen) to generate IRBIT-His and IRBIT(1-104)-His expression vectors, respectively. The same cDNAs were subcloned into the GST fusion vector pGEX-4T-1 (Amersham Pharmacia Biotech) to generate GST-IRBIT and GST-IRBIT(1-104) expression vectors, respectively. The cDNA fragments encoding the amino acids 1-225, 1-343, 341-923, 600-1248, 916-1581 and 1553-1943 of the amino acid sequence (SEQ ID NO: 7) of mouse IP3R1 were inserted into pGEX-KG to generate GST-Ia, GST-Iab, GST-IIab, GST-IIbIIIa, GST-IIIab and GST-IV expression vectors, respectively. The amino acids 1593-2217 of mouse IP3R1 were inserted into pGEX-4T-1 to obtain GST-IV-Va expression vector. These fusion proteins were expressed in Escherichia coli. GST-EL was expressed in Sf9 cells as described above. […]
# For the determination of the IRBIT binding region and the critical amino acid residue of IP3R1, the diluted high salt extract was subjected to pulldown assay as described above with 100 pmol of GST, GST-EL, GST-Ia, GST-Iab, GST-IbIIa, GST-IIab, GST-IIbIIIa, GST-IIIab, GST-IV, GST-IV-Va, K508A or R441Q, and analyzed by Western blotting with anti-IRBIT antibody.
# IP3R1 = target: T3, IP3R1 (Mus musculus, UniProt P11881, N1264K/P2675L); test: Co-immunoprecipitation from mouse cerebellar crude microsome; format: binding; conditions: detergent extract of mouse cerebellar crude microsome
# T3 construct: from tissue; host or cells: mouse cerebellum, detergent extract of crude microsome
# Procedure: The detergent extract of mouse cerebellar crude microsome was immunoprecipitated with anti-IRBIT antibody or control antibody. The immunoprecipitates were subjected to SDS-PAGE followed by Western blotting with anti-IP3R1 antibody (upper panel) or anti-IRBIT (lower panel) antibody.
# Detergent-solubilized extract from the crude microsome was prepared with 1% Nonidet P-40-containing 50 mM Hepes (pH 7.4), 1 mM MgCl2, and protease inhibitors for 30 minutes at 4° C., and centrifuged at 20,000×g for 30 minutes. The supernatant was diluted 10-fold in an immunoprecipitation buffer (10 mM Hepes (pH 7.4), 150 mM NaCl, 1 mM MgCl2, and 1% Nonidet P-40) and incubated with rabbit anti-IRBIT antibody (3 μg) or control rabbit IgG (3 μg) for 2 hours at 4° C. Protein G Sepharose 4 fast flow (Amersham Pharmacia Biotech) was added for reaction with immune complexes for 2 hours at 4° C. Resins were washed three times with an immunoprecipitation buffer and subjected to Western blotting with anti-IRBIT antibody or mouse anti-IP3R1 antibody KM1112 (47).
# T1 sequence (P11881 1-2217 N1264K): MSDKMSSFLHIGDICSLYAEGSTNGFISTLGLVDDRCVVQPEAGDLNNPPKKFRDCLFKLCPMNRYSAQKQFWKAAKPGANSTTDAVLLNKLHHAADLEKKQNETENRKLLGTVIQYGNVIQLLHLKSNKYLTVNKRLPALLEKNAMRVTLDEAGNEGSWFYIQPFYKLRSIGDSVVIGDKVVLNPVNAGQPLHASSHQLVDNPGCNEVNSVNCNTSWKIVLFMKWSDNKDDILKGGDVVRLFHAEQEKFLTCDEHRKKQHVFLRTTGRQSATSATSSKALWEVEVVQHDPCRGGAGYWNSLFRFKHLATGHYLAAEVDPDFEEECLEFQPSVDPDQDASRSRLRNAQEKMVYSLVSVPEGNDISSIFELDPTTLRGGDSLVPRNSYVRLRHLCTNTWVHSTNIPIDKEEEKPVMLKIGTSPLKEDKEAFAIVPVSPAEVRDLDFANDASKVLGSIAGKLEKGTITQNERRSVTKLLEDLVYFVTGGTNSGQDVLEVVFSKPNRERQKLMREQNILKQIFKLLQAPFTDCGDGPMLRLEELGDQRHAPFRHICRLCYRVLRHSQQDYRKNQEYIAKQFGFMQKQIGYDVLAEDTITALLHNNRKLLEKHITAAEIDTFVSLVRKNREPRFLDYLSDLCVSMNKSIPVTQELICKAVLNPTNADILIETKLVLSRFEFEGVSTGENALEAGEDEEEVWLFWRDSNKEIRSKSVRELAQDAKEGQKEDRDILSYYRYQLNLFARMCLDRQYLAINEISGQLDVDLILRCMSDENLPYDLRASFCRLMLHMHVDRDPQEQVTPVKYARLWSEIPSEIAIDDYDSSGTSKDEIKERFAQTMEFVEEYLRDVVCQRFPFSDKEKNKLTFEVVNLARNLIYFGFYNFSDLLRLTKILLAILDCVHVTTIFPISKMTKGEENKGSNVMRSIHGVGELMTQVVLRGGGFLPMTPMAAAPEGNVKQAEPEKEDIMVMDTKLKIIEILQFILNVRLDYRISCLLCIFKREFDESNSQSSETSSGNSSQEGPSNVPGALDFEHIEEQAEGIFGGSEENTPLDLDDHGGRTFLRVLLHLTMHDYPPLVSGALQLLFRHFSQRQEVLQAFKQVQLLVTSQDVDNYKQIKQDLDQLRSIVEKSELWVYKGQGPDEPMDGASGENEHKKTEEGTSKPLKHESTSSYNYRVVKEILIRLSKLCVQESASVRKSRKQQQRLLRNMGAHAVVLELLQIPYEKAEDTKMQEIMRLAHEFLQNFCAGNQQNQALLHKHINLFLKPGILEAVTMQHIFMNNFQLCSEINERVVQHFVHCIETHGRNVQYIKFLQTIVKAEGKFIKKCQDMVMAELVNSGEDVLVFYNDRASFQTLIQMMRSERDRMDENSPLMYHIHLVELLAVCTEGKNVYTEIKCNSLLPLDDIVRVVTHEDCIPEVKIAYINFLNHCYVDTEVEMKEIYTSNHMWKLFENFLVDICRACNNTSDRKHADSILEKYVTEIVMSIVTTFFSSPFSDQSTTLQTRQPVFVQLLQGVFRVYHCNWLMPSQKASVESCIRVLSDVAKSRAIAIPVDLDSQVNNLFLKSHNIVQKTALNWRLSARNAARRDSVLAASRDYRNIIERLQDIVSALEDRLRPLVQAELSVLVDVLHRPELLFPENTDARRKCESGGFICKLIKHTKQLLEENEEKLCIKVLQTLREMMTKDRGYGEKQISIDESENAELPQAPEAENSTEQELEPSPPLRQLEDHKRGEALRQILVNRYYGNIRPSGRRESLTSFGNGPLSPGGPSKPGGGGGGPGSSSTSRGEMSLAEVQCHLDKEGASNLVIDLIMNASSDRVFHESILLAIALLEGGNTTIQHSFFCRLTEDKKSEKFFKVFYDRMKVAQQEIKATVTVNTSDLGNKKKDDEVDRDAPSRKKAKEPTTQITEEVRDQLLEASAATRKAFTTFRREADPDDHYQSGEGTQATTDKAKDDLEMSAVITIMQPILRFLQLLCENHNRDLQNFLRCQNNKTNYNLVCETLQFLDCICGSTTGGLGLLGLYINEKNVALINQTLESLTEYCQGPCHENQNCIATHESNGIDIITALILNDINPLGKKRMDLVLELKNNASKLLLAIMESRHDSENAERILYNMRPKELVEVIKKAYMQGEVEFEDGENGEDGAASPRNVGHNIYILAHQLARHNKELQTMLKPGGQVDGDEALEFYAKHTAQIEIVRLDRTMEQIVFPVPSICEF
# T3 sequence (P11881 whole entry N1264K/P2675L): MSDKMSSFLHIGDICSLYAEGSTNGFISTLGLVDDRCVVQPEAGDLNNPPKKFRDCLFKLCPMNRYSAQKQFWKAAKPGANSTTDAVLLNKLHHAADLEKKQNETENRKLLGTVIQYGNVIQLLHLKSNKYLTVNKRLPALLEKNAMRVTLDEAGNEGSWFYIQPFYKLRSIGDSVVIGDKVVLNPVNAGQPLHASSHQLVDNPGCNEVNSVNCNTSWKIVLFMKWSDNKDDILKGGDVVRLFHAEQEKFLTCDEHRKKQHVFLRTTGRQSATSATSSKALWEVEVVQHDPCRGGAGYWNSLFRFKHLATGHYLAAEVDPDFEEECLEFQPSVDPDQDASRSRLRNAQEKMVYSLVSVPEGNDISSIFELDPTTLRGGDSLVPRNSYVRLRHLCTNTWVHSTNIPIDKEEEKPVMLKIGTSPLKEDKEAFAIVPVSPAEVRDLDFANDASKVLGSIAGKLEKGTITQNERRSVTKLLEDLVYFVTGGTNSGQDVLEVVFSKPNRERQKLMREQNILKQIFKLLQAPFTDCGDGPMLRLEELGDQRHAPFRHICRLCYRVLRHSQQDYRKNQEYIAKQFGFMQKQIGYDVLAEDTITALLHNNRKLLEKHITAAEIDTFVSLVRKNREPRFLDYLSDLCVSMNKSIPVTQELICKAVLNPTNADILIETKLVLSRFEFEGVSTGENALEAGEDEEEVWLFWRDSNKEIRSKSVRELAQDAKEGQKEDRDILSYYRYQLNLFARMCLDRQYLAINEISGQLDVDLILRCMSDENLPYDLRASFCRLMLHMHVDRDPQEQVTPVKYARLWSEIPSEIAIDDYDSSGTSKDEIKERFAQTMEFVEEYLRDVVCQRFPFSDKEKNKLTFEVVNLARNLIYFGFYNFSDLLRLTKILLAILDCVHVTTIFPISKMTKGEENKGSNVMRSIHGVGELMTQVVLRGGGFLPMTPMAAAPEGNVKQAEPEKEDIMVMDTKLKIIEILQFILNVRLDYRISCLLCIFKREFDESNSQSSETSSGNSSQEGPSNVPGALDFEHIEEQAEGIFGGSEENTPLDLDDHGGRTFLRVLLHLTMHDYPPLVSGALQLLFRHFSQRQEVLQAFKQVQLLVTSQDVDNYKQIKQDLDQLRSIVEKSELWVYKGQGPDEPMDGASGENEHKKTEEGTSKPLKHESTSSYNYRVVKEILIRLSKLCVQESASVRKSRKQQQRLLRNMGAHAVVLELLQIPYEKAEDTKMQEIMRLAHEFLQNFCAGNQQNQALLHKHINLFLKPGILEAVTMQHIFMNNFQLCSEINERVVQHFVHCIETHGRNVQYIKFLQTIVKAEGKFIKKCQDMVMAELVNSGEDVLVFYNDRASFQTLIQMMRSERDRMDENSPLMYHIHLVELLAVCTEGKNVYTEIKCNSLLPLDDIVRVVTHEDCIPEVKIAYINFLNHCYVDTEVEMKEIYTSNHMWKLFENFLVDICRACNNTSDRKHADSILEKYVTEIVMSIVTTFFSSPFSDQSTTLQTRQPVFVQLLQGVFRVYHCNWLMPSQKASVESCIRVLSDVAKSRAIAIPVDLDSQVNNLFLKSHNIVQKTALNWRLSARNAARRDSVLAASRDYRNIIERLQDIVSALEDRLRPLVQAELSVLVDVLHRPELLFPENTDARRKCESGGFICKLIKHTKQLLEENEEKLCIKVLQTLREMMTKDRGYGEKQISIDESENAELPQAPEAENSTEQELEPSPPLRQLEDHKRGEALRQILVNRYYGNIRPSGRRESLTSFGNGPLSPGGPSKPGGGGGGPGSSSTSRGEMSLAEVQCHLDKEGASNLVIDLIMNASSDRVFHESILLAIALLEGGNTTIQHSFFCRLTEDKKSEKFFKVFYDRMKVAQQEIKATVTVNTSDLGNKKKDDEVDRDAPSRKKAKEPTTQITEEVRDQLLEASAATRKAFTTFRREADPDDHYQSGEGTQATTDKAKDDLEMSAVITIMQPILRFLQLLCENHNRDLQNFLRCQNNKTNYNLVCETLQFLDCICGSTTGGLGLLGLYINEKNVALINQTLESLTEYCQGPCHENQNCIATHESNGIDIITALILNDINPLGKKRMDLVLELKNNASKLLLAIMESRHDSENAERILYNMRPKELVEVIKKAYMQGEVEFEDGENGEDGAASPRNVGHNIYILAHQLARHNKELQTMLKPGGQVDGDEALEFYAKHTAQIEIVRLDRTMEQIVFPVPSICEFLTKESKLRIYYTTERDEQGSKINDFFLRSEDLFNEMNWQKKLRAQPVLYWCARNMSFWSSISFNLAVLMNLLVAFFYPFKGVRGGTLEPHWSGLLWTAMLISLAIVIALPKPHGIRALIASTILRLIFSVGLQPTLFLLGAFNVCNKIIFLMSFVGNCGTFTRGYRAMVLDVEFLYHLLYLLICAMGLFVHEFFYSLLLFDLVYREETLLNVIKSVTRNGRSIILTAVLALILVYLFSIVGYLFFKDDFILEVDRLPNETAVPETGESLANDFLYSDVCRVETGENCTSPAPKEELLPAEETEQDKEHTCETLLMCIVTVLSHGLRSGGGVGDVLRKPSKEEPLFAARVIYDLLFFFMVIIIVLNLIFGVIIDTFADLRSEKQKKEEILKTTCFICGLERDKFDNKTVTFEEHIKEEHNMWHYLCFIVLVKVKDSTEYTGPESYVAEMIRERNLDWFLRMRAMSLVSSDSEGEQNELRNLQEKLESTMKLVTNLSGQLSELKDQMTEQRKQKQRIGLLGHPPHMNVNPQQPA
molecule,measurement,setting,value
"IRBIT: novel IP3 receptor-binding protein of 530 amino acids, SEQ ID NO: 1 (protein, listed as Mus musculus) MSMPDAMPLPGVGEELKQAKEIEDAEKYSFMATVTKAPKKQIQFADDMQEFTKFPTKTGRRSLSRSISQSSTDSYSSAASYTDSSDDEVSPREKQQTNSKGSSNFCVKNIKQAEFGRREIEIAEQDMSALISLRKRAQGEKPLAGAKIVGCTHITAQTAVLIETLCALGAQCRWSACNIYSTQNEVAAALAEAGVAVFAWKGESEDDFWWCIDRCVNMDGWQANMILDDGGDLTHWVYKKYPNVFKKIRGIVEESVTGVHRLYQLSKAGKLCVPAMNVNDSVTKQKFDNLYCCRESILDGLKRTTDVMFGGKQVVVCGYGEVGKGCCAALKALGAIVYITEIDPICALQACMDGFRVVKLNEVIRQVDVVITCTGNKNVVTREHLDRMKNSCIVCNMGHSNTEIDVTSLRTPELTWERVRSQVDHVIWPDGKRVVLLAEGRLLNLSCSTVPTFVLSITATTQALALIELYNAPEGRYKQDVYLLPKKMDEYVASLHLPSFDAHLTELTDDQAKYLGLNKNGPFKPNYYRY",effect on IP3 binding of GST-EL after dephosphorylation,GST-EL (IP3R),reduced effect
same,binding to GST-IbIIa,[1],to the same extent as GST-EL
same,co-immunoprecipitation of IP3R1 with anti-IRBIT antibody,IP3R1,co-immunoprecipitated
